Experimental data: paper PMC12599920
Values belong to the substance of their own block, whether it stands above or below them.

Biological target: Mushroom body defect coiled-coil domain (Mud^CC)
Assay: saturation binding (MBP pull-down, gel quantification)
Details: read off a plot
[1] = right plot, 20 µM MudCC, parent: est. 130

Substance: 3OCR_ΔCT, P. syringae aldolase enzyme with the CThelix deleted FLEaaa
response (10 µM MudCC, parent: est. 110): 27 AU
response (20 µM MudCC, parent: est. 140): 46 AU
response (40 µM MudCC, parent: est. 140): 57 AU

response (left plot, 5 µM MudCC, parent: est. 110): 100 AU
response (left plot, 20 µM MudCC, parent: est. 130): 120 AU
Substance: MBP:Hts (110-310), CThelix truncation of the Hts aldolase domain (from UniProt Q02645) H164A; T167A

response (right plot, 5 µM MudCC, parent: est. 110): 38 AU
response (right plot, 10 µM MudCC, parent: est. 120): 86 AU
response [1]: 140 AU
Substance: MBP:Hts (110-310), CThelix truncation of the Hts aldolase domain (from UniProt Q02645) L139A

response (right plot, 5 µM MudCC, parent: est. 99): 120 AU
response [1]: 140 AU
Substance: MBP:Hts (110-310), CThelix truncation of the Hts aldolase domain (from UniProt Q02645) R128A

response (left plot, 5 µM MudCC, parent: est. 83): 1 AU
response (left plot, 20 µM MudCC, parent: est. 110): 5 AU
Substance: MBP:Hts (110-310), CThelix truncation of the Hts aldolase domain (from UniProt Q02645) Y159A; L162A; E165A

response (5 µM MudCC, parent: est. 98): 130 AU
response (20 µM MudCC, parent: est. 140): 150 AU
Substance: MBP:Hts (110-401), full-length Hts aldolase domain (from UniProt Q02645) D310A

response (5 µM MudCC, parent: est. 98): 93 AU
response (20 µM MudCC, parent: est. 140): 150 AU
Substance: MBP:Hts (110-401), full-length Hts aldolase domain (from UniProt Q02645) Q151A; E152A

response (5 µM MudCC, parent: est. 98): 110 AU
response (20 µM MudCC, parent: est. 140): 150 AU
Substance: MBP:Hts (110-401), full-length Hts aldolase domain (from UniProt Q02645) Q177A; V181A

response (5 µM MudCC, parent: est. 98): 120 AU
response (20 µM MudCC, parent: est. 140): 140 AU
Substance: MBP:Hts (110-401), full-length Hts aldolase domain (from UniProt Q02645) R205A; D207A

response (left plot, 5 µM MudCC, parent: est. 120): 7 AU
response (left plot, 20 µM MudCC, parent: est. 140): 24 AU
Substance: MBP:Hts (110-401), full-length Hts aldolase domain (from UniProt Q02645) Y159A; L162A; E165A
